What was measured:
Format in all cases: biochemical
[1] = carboxylate reductase enzyme activity assay (pimelate to pimelate semialdehyde), NADPH consumption at 340 nm; conditions: purified enzyme enhanced by gene product of sfp; 2 mM pimelate, 1 mM ATP, 1 mM NADPH, pH 7.5, room temperature, 20 min; FIG. 8
Protocol: A nucleotide sequence encoding a HIS-tag was added to the nucleic acid sequences from Segniliparus rugosus and Segniliparus rotundus that encode the carboxylate reductases of SEQ ID NOs: 4 (EFV11917.1) and 6 (ADG98140.1), respectively (see FIG. 6C and FIG. 6E), such that N-terminal HIS tagged carboxylate reductases could be produced. Each of the modified genes was cloned into a pET Duet expression vector along with a sfp gene encoding a HIS-tagged phosphopantetheine transferase from Bacillus subtilis, both under the T7 promoter. Each expression vector was transformed into a BL21[DE3] E. coli host and the resulting recombinant E. coli strains were cultivated at 37° C. in a 250 mL shake flask culture containing 50 mL LB media and antibiotic selection pressure, with shaking at 230 rpm. Each culture was induced overnight at 37° C. using an auto-induction media.
The pellet from each induced shake flask culture was harvested via centrifugation. Each pellet was resuspended and lysed via sonication, and the cell debris was separated from the supernatant via centrifugation. […]
Enzyme activity assays (i.e., from pimelate to pimelate semialdehyde) were performed in triplicate in a buffer composed of a final concentration of 50 mM HEPES buffer (pH=7.5), 2 mM pimelate, 10 mM MgCl2, 1 mM ATP, and 1 mM NADPH. […] The consumption of NADPH was monitored by absorbance at 340 nm. […]

[2] = carboxylate reductase enzyme activity assay (N7-acetyl-7-aminoheptanoate to N7-acetyl-7-aminoheptanal), NADPH consumption at 340 nm; conditions: purified enzyme enhanced by gene product of sfp; 2 mM N7-acetyl-7-aminoheptanoate, 1 mM ATP, 1 mM NADPH, pH 7.5, room temperature, 20 min; FIG. 10
Protocol: The activity of each of the N-terminal His-tagged carboxylate reductases of SEQ ID NOs: 3, 5, and 6 (see Examples 2 and 3, and FIG. 6B, FIGS. 6D-6E) for converting N7-acetyl-7-aminoheptanoate to N7-acetyl-7-aminoheptanal was assayed in triplicate in a buffer composed of a final concentration of 50 mM HEPES buffer (pH=7.5), 2 mM N7-acetyl-7-aminoheptanoate, 10 mM MgCl2, 1 mM ATP, and 1 mM NADPH. The assays were initiated by adding purified carboxylate reductase and phosphopantetheine transferase or the empty vector control to the assay buffer containing the N7-acetyl-7-aminoheptanoate then incubated at room temperature for 20 min. The consumption of NADPH was monitored by absorbance at 340 nm.

[3] = carboxylate reductase enzyme activity assay (pimelate semialdehyde to heptanedial), NADPH consumption at 340 nm; conditions: purified enzyme enhanced by gene product of sfp; 2 mM pimelate semialdehyde, 1 mM ATP, 1 mM NADPH, pH 7.5, room temperature, 20 min; FIG. 11
Protocol: The N-terminal His-tagged carboxylate reductase of SEQ ID NO: 6 (see Example 3 and FIG. 6E) was assayed using pimelate semialdehyde as substrate. The enzyme activity assay was performed in triplicate in a buffer composed of a final concentration of 50 mM HEPES buffer (pH=7.5), 2 mM pimelate semialdehyde, 10 mM MgCl2, 1 mM ATP, and 1 mM NADPH. The enzyme activity assay reaction was initiated by adding purified carboxylate reductase and phosphopantetheine transferase or the empty vector control to the assay buffer containing the pimelate semialdehyde and then incubated at room temperature for 20 min. The consumption of NADPH was monitored by absorbance at 340 nm.

[4] = coupled assay of 5-hydroxyvalerate CoA transferase and thiolase, LC-MS detection of acyl-CoAs; conditions: 1 mM acetyl-CoA, 1 mM 5-hydroxyvalerate, pH 6.8, 30° C.; no analytical standards, ions of expected molecular weight
Protocol: For each culture, expression plasmids were freshly transformed into BL21(DE3) (Agilent). Colonies from fresh agar plates were used to inoculate 20 ml LB in 250 ml flask overnight pre-culture. For all constructs except 237, ampicillin was used, for 237 kanamycin was required. After incubation overnight at 37° C. and 200 rpm, pre-cultures were used to inoculate (1:100) larger cultures, 350 ml LB, with respective antibiotic in […]. After 2.5 h of shaking with 200 rpm at 37° C., cultures reached OD600 in the range 0.5-0.7 at which point they were induced with 1 mM IPTG and the temperature of the culture was changed to 25° C. Incubation continued overnight. Cells were harvested the next day and stored at −20° C. until protein purification was performed.
To purify an overexpressed protein, a bacterial pellet from a 350 ml culture was resuspended in up to total 20 ml of Binding Buffer (20 mM Sodium phosphate pH 7.4, 500 mM Sodium chloride, 20 mM imidazole, 5% glycerol) and sonicated for 2 min with a microtip (amplitude 50%, 1 s pulse ON, 2 s OFF). Cell suspension was centrifuged with 20,000 G for 30 min at 4° C. As all the tested proteins were His-tagged, the purification with Immobilized Metal Affinity Chromatography was sufficient to ensure both necessary purity and amount for the enzymatic assays. […]

B1: SEQ ID NO: 6: Segniliparus rotundus carboxylate reductase, N-terminal HIS tagged (protein, listed as Segniliparus rotundus)
chain: MTQSHTQGPQASAAHSRLARRAAELLATDPQAAATLPDPEVVRQATRPGLRLAERVDAILSGYADRPALGQRSFQTVKDPITGRSSVELLPTFDTITYRELRERATAIASDLAHHPQAPAKPGDFLASIGFISVDYVAIDIAGVFAGLTAVPLQTGATLATLTAITAETAPTLFAASIEHLPTAVDAVLATPSVRRLLVFDYRAGSDEDREAVEAAKRKIADAGSSVLVDVLDEVIARGKSAPKAPLPPATDAGDDSLSLLIYTSGSTGTPKGAMYPERNVAHFWGGVWAAAFDEDAAPPVPAINITFLPLSHVASRLSLMPTLARGGLMHFVAKSDLSTLFEDLKLARPTNLFLVPRVVEMLYQHYQSELDRRGVQDGTREAEAVKDDLRTGLLGGRILTAGFGSAPLSAELAGFIESLLQIHLVDGYGSTEAGPVWRDGYLVKPPVTDYKLIDVPELGYFSTDSPHPRGELAIKTQTILPGYYKRPETTAEVFDEDGFYLTGDVVAQIGPEQFAYVDRRKNVLKLSQGEFVTLAKLEAAYSSSPLVRQLFVYGSSERSYLLAVIVPTPDALKKFGVGEAAKAALGESLQKIARDEGLQSYEVPRDFIIETDPFTVENGLLSDARKSLRPKLKEHYGERLEAMYKELADGQANELRDIRRGVQQRPTLETVRRAAAAMLGASAAEIKPDAHFTDLGGDSLSALTFSNFLHDLFEVDVPVGVIVSAANTLGSVAEHIDAQLAGGRARPTFATVHGKGSTTIKASDLTLDKFIDEQTLEAAKHLPKPADPPRTVLLTGANGWLGRFLALEWLERLAPAGGKLITIVRGKDAAQAKARLDAAYESGDPKLAGHYQDLAATTLEVLAGDFSEPRLGLDEATWNRLADEVDFISHPGALVNHVLPYNQLFGPNVAGVAEIIKLAITTRIKPVTYLSTVAVAAGVEPSALDEDGDIRTVSAERSVDEGYANGYGNSKWGGEVLLREAHDRTGLPVRVFRSDMILAHQKYTGQVNATDQFTRLVQSLLATGLAPKSFYELDAQGNRQRAHYDGIPVDFTAESITTLGGDGLEGYRSYNVFNPHRDGVGLDEFVDWLIEAGHPITRIDDYDQWLSRFETSLRGLPESKRQASVLPLLHAFARPGPAVDGSPFRNTVFRTDVQKAKIGAEHDIPHLGKALVLKYADDIKQLGLL
modifications: N-terminal His tag
notes: Segniliparus rotundus carboxylate reductase, N-terminal HIS tagged
acceptance of pimelate as substrate (NADPH consumption), confirmed against the empty vector control [1]: accepted pimelate as substrate
acceptance of N7-acetyl-7-aminoheptanoate as substrate (NADPH consumption), confirmed against the empty vector control [2]: accepted N7-acetyl-7-aminoheptanoate as substrate
acceptance of pimelate semialdehyde as substrate (NADPH consumption), confirmed against the empty vector control [3]: accepted pimelate semialdehyde as substrate

B2: BDIGENE #246: Clostridium viride 5-hydroxyvalerate CoA transferase (protein)
chain: MAQFVTAQEAVKHIPNGSRVVLAHSTGEPRTLVKAMVENYEQYKDVEVCHMLGLGPYEYTNPEMKGHLWHNSLFMGPGGRKAFNENRLDFTPGYFCDSIKFFREGYLPVDVLMMTVSPPDKHGYVTCGITCDFTMPAFECAKMVIVQVNKNMPRTFGQTAIHLDDIDFAVEADDPLYGSVPGELTDIDRKIGEHCASLINDGACLQLGIGGIPNAVLTYLTEKNDMGIHSEMLSDGILQLIKAGNINNSKKQIHVGKSAVTFLNGSQELYDYVDDNPSVEFYPVDYINDPYVIGKNDNMVSVNSALSVDLMGQIVADNLSATRQISGAGGFVDFVRGATISKGGISIVAMPSTAAGGKASRIEMMFDAGRPITLTRFESFYVVTEYGIAKMRGNSLRTRARQLIEIAHPDFRDEMKEFYEKRFGEKY
modifications: Clostridium viride
notes: Clostridium viride 5-hydroxyvalerate CoA transferase
intermediate product 5-hydroxyvaleryl-CoA by LC-MS [4]: detected in all samples containing both substrates and BDIGENE #246
